For one molecule, stoichiometry N results are on record in paper doi:10.1101/2024.02.06.579161.

This assay has as its target T1, S100A9, P06702.
T1 chain: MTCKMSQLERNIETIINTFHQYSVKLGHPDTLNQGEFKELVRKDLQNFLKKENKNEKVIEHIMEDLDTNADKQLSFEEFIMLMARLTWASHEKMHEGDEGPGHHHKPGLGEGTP
Description: SDS-PAGE. The following applies: remark: other sources report otherwise.

B1: S100A9, P06702 1-114 (natural protein)
chain: T1 chain
By stoichiometry N is commonly meant a count of units in the complex or per binding partner. As to B1, the stoichiometry N came to 2.
